Experimental data as given in US20040106545A1 (MCGILL UNIVERSITY, published 2004).
Positions of bridges follow the written chain, without caps; N, C: chain ends.

T1: E-cadherin on Madin Darby canine kidney (MDCK) cells (canine (MDCK cells), UniProt F1PAA9 157-885)
T1 sequence (looked up): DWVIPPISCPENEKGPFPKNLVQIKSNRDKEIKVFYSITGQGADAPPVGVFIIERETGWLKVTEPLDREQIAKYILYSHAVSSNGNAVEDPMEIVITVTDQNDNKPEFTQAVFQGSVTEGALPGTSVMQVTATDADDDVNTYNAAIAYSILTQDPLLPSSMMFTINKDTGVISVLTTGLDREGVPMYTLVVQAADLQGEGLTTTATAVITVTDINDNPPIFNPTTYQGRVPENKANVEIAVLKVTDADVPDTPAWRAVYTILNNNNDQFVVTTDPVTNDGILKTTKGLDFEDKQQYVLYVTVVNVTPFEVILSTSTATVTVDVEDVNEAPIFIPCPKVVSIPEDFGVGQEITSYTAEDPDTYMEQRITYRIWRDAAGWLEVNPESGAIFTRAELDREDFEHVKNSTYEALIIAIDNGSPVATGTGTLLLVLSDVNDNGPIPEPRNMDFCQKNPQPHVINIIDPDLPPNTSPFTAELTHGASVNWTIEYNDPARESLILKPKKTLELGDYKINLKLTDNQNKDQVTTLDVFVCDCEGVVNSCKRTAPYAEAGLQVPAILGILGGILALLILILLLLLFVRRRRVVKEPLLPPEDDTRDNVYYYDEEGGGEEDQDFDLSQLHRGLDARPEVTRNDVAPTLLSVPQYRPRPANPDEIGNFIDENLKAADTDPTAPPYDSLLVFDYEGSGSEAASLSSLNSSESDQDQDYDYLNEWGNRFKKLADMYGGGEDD

T2: chick N-cadherin expressed on transfected 3T3 cells (chick, UniProt P10288 165-912)
T2 sequence (looked up): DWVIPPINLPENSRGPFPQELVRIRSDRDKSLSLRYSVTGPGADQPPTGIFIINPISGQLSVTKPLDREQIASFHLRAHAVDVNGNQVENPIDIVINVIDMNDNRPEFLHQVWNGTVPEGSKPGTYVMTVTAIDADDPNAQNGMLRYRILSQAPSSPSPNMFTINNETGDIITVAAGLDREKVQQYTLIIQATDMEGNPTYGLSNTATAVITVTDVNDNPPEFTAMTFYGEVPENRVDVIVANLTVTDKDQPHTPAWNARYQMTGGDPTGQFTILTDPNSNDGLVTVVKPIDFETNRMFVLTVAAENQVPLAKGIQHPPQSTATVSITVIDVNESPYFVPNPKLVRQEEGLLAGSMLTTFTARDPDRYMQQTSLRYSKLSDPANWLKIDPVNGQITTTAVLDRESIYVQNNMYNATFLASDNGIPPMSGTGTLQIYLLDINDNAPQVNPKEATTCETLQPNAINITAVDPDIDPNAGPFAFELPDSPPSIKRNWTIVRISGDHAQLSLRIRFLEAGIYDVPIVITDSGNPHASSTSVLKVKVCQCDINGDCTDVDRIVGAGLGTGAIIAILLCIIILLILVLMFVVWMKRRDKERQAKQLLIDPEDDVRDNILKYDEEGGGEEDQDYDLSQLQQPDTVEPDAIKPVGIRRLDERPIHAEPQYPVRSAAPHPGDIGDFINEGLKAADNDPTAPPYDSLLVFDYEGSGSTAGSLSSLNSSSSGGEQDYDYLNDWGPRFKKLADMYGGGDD

B1: H-CAHAVDC-NH2 (peptide)
peptide: H-CAHAVDC-NH2
modifications: disulfide 1-7
SMILES: CC(C)[C@@H]1NC(=O)[C@H](C)NC(=O)[C@H](Cc2c[nH]cn2)NC(=O)[C@H](C)NC(=O)[C@@H](N)CSSC[C@@H](C(N)=O)NC(=O)[C@H](CC(=O)O)NC1=O
B2: N-Ac-S-CHAVC-NH2 (peptide)
peptide: Ac-SCHAVC-NH2
modifications: disulfide 2-6
SMILES: CC(=O)N[C@@H](CO)C(=O)N[C@H]1CSSC[C@@H](C(N)=O)NC(=O)[C@H](C(C)C)NC(=O)[C@H](C)NC(=O)[C@H](Cc2c[nH]cn2)NC1=O
B3: N-Ac-YCHAVC-NH2 (peptide)
peptide: Ac-YCHAVC-NH2
modifications: disulfide 2-6
SMILES: CC(=O)N[C@@H](Cc1ccc(O)cc1)C(=O)N[C@H]1CSSC[C@@H](C(N)=O)NC(=O)[C@H](C(C)C)NC(=O)[C@H](C)NC(=O)[C@H](Cc2c[nH]cn2)NC1=O

What follows are binders tested against T1, E-cadherin on Madin Darby canine kidney … (assay: cell-based or functional assay).

Compared with Ac-CHAVC-NH2 (disulfide 1-5 (inferred)) [N-Ac-CHAVC-NH2], Ac-CFSHAVC-NH2 (disulfide 1-7 (inferred)) [N-Ac-CFSHAVC-NH2] is 12-fold lower in “EC50, decrease of electrical resistance across MDCK cell monolayer” value (shortened to “EC50, decrease”): 270 µM for the first, 22 µM for the second.

With Ac-CSHAVC-NH2 (disulfide 1-6 (inferred)) [N-Ac-CSHAVC-NH2] the “EC50, decrease” value was 20 µM.

What follows are binders tested against T2, chick N-cadherin expressed on … (assay: cell-based or functional assay).

Compared with Ac-CHAVDC-NH2 (disulfide 1-6 (inferred)) [N-Ac-CHAVDC-NH2], Ac-CHAVC-NH2 (disulfide 1-5 (inferred)) [N-Ac-CHAVC-NH2] is lower in “% inhibition of N-cadherin dependent neurite outgrowth (peptide 250 µg/mL)” value (from here on “% inhibition … (peptide 250 µg/mL)”): 88.4% for the first, 68.2% for the second.

Compared with H-CAHAVDIC-NH2 (disulfide 1-8 (inferred)) [H-CAHAVDIC-NH2], Ac-CSHAVC-NH2 (disulfide 1-6 (inferred)) [N-Ac-CSHAVC-NH2] is higher in “% inhibition … (peptide 250 µg/mL)” value: -3.7% for the first, 11% for the second.

Compared with B1, H-CHAVC-NH2 (disulfide 1-5 (inferred)) [H-CHAVC-NH2] is higher in “% inhibition … (peptide 250 µg/mL)” value: 1.3% for the first, 1.7% for the second.

Target: T1, E-cadherin on Madin Darby canine kidney …
Assay: cell-based or functional assay
Remark: another data set of the same source

Compared with Ac-CHAVCSS-NH2 (disulfide 1-5 (inferred)) [N-Ac-CHAVC-SS-NH2], Ac-CHAVCY-NH2 (disulfide 1-5 (inferred)) [N-Ac-CHAVC-Y-NH2] is 2-fold lower in “EC50, decrease” value: 430 µM for the first, 210 µM for the second.

B2 and Ac-CHAVCD-NH2 (disulfide 1-5 (inferred)) [N-Ac-CHAVC-D-NH2] are within 1.5-fold of each other in “EC50, decrease” value: 490 µM for the first, 470 µM for the second.

Ac-CHAVCT-NH2 (disulfide 1-5 (inferred)) [N-Ac-CHAVC-T-NH2] and Ac-CHAVCS-NH2 (disulfide 1-5 (inferred)) [N-Ac-CHAVC-S-NH2] are within 1.5-fold of each other in “EC50, decrease” value: 480 µM for the first, 490 µM for the second.

These binders were tested against human L1 expressed on transfected 3T3 cells (human, UniProt P32004 20-1257) (assay: cell-based or functional assay).
Sequence of human L1 expressed on transfected 3T3 cells (P32004 20-1257): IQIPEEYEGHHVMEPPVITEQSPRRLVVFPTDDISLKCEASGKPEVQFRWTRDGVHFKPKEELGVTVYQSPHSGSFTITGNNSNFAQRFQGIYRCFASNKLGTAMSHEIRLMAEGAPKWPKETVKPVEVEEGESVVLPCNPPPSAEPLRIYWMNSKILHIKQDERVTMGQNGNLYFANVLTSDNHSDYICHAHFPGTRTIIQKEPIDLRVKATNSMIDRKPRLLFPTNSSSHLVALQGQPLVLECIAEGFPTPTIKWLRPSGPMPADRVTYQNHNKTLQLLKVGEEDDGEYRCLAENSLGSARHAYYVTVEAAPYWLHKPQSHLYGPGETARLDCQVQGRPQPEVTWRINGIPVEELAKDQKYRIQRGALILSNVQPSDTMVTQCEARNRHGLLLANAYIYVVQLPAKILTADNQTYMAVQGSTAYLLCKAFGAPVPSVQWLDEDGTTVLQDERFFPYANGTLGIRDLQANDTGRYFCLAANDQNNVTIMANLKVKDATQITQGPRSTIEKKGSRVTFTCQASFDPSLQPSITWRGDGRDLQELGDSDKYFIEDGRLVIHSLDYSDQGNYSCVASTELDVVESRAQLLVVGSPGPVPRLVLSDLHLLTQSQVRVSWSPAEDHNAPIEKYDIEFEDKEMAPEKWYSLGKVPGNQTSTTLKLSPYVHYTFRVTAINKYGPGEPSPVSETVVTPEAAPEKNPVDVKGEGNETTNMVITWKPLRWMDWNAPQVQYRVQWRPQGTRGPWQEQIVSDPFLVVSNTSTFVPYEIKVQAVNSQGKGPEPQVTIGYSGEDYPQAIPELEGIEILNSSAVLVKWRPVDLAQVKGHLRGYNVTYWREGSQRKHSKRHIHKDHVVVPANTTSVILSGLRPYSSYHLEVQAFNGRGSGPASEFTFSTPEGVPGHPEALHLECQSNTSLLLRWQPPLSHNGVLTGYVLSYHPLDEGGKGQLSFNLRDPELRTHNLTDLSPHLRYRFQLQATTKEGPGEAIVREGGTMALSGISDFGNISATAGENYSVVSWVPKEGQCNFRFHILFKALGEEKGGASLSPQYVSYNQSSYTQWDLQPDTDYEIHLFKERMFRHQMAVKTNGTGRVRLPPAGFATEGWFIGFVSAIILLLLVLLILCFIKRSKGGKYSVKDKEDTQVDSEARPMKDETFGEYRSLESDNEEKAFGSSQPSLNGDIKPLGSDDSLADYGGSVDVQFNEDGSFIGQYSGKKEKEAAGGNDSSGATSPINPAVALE

Compared with Ac-CHAVDC-NH2 (disulfide 1-6 (inferred)) [N-Ac-CHAVDC-NH2], Ac-CHAVC-NH2 (disulfide 1-5 (inferred)) [N-Ac-CHAVC-NH2] is higher in “% Inhibition of L1 Response (peptide 125 µg/ml)” value: 9.6% for the first, 41.6% for the second.

Compared with Ac-CHAVDIC-NH2 (disulfide 1-7 (inferred)) [N-Ac-CHAVDIC-NH2], Ac-CHAVDINC-NH2 (disulfide 1-8 (inferred)) [N-Ac-CHAVDINC-NH2] is lower in “% Inhibition of L1 Response (peptide 125 µg/ml)” value: 6% for the first, 1.7% for the second.

Target: T2, chick N-cadherin expressed on …
Assay: cell-based or functional assay
Remark: another data set of the same source

Going from Ac-CHAVDC-NH2 (disulfide 1-6 (inferred)) [N-Ac-CHAVDC-NH2] to Ac-CHAVC-NH2 (disulfide 1-5 (inferred)) [N-Ac-CHAVC-NH2], the “% Inhibition of N-Cadherin Response (peptide 125 µg/ml)” value falls from 77.1% to 33.2%.

Compared with Ac-CHAVDIC-NH2 (disulfide 1-7 (inferred)) [N-Ac-CHAVDIC-NH2], Ac-CHAVDINC-NH2 (disulfide 1-8 (inferred)) [N-Ac-CHAVDINC-NH2] is lower in “% Inhibition of N-Cadherin Response (peptide 125 µg/ml)” value: 88.3% for the first, 62% for the second.

What follows are binders tested against N-cadherin expressed on transfected 3T3 cells (Examples 2 and 21) (assay: cell-based or functional assay).

First: Ac-CHAVDC-NH2 (disulfide 1-6 (inferred)) [N-Ac-CHAVDC-NH2]
Second: Ac-CHAVC-NH2 (disulfide 1-5 (inferred)) [N-Ac-CHAVC-NH2]
The “% Inhibition of neurite outgrowth, 250 µg/mL (rat neurons)” value (shortened to “% Inhibition … (rat neurons)”) of the first is higher: 88% for the first, 65% for the second.

H-CAHAVDIC-NH2 (disulfide 1-8 (inferred)) [H-CAHAVDIC-NH2] and Ac-CSHAVC-NH2 (disulfide 1-6 (inferred)) [N-Ac-CSHAVC-NH2] are the same in “% Inhibition … (rat neurons)” value: 0% for the first, 0% for the second.

B1 and H-CHAVC-NH2 (disulfide 1-5 (inferred)) [H-CHAVC-NH2] are the same in “% Inhibition … (rat neurons)” value: 0% for the first, 0% for the second.

Target: T2, chick N-cadherin expressed on …
Assay: cell-based or functional assay
Remark: another data set of the same source

Going from Ac-CHAVDC-NH2 (disulfide 1-6 (inferred)) [N-Ac-CHAVDC-NH2] to Ac-CHAVDIC-NH2 (disulfide 1-7 (inferred)) [N-Ac-CHAVDIC-NH2], the “% inhibition of neurite outgrowth (peptide 125 µg/mL)” value rises from 77.1% to 88.3%.

First: Ac-CHAVYC-NH2 (disulfide 1-6 (inferred)) [N-Ac-CHAVYC-NH2]
Second: Ac-CHAVDINC-NH2 (disulfide 1-8 (inferred)) [N-Ac-CHAVDINC-NH2]
The “% inhibition of neurite outgrowth (peptide 125 µg/mL)” value of the first is higher: 64.9% for the first, 62% for the second.

Compared with Ac-CHAVDC-NH2 (disulfide 1-6 (inferred)) [N-Ac-CHAVDC-NH2], Ac-CHAVDIC-NH2 (disulfide 1-7 (inferred)) [N-Ac-CHAVDIC-NH2] is 1.6-fold lower in “EC50 for inhibition of neurite outgrowth” value: 93 µM for the first, 60 µM for the second.

First: Ac-CHAVYC-NH2 (disulfide 1-6 (inferred)) [N-Ac-CHAVYC-NH2]
Second: Ac-CHAVDINC-NH2 (disulfide 1-8 (inferred)) [N-Ac-CHAVDINC-NH2]
The “EC50 for inhibition of neurite outgrowth” value of the first is 1.8-fold higher: 128 µM for the first, 70 µM for the second.

Target: T2, chick N-cadherin expressed on …
Assay: cell-based or functional assay
Remark: another data set of the same source

Compared with Ac-CHAVC-NH2 (disulfide 1-5 (inferred)) [N-Ac-CHAVC-NH2], H-CAHAVDIC-NH2 (disulfide 1-8 (inferred)) [H-CAHAVDIC-NH2] is lower in “Percent Inhibition of N-cadherin dependent neurite outgrowth (peptide 250 µg/ml)” value (from here on “Percent Inhibition”): 68.2% for the first, -3.7% for the second.

Compared with B1, H-CHAVC-NH2 (disulfide 1-5 (inferred)) [H-CHAVC-NH2] is higher in “Percent Inhibition” value: 1.3% for the first, 1.7% for the second.

Target: T2, chick N-cadherin expressed on …
Assay: cell-based or functional assay
Remark: another data set of the same source

Going from Ac-CHAVCSS-NH2 (disulfide 1-5 (inferred)) [N-Ac-CHAVC-SS-NH2] to Ac-CHAVCD-NH2 (disulfide 1-5 (inferred)) [N-Ac-CHAVC-D-NH2], the “Percent Inhibition” value falls from 37.8% to 3.3%.

Going from Ac-CHAVCT-NH2 (disulfide 1-5 (inferred)) [N-Ac-CHAVC-T-NH2] to Ac-CHAVCS-NH2 (disulfide 1-5 (inferred)) [N-Ac-CHAVC-S-NH2], the “Percent Inhibition” value falls from 23.7% to 6.9%.

Going from Ac-CHAVCE-NH2 (disulfide 1-5 (inferred)) [N-Ac-CHAVC-E-NH2] to B3, the “Percent Inhibition” value falls from 32.5% to 10.6%.

Target: T2, chick N-cadherin expressed on …
Assay: cell-based or functional assay
Remark: another data set of the same source

First: Ac-CHAVCY-NH2 (disulfide 1-5 (inferred)) [N-Ac-CHAVC-Y-NH2]
Second: Ac-CHAVYC-NH2 (disulfide 1-6 (inferred)) [N-Ac-CHAVYC-NH2]
The “EC50 for inhibition of neurite outgrowth” value of the first is 1.5-fold higher: 120 µM for the first, 80 µM for the second.

For Ac-CHAVC-NH2 (disulfide 1-5 (inferred)) [N-Ac-CHAVC-NH2], the “EC50 for inhibition of the N-cadherin response (neurite outgrowth)” value was 220 µM.
